# Data taken from patent publication US20100291074.
# How the values were obtained:
# [1] = target: Aβ42 (aggregation state not stated at the place of use) (UniProt P05067)
# [2] = target: Aβ (amyloid beta peptide, length and aggregation state not specified; ˜4 kDa band) (UniProt P05067)
# Chain of Aβ (amyloid beta peptide, length and aggregation state not specified; ˜4 kDa band) (P05067 whole entry, looked up, tested part not stated): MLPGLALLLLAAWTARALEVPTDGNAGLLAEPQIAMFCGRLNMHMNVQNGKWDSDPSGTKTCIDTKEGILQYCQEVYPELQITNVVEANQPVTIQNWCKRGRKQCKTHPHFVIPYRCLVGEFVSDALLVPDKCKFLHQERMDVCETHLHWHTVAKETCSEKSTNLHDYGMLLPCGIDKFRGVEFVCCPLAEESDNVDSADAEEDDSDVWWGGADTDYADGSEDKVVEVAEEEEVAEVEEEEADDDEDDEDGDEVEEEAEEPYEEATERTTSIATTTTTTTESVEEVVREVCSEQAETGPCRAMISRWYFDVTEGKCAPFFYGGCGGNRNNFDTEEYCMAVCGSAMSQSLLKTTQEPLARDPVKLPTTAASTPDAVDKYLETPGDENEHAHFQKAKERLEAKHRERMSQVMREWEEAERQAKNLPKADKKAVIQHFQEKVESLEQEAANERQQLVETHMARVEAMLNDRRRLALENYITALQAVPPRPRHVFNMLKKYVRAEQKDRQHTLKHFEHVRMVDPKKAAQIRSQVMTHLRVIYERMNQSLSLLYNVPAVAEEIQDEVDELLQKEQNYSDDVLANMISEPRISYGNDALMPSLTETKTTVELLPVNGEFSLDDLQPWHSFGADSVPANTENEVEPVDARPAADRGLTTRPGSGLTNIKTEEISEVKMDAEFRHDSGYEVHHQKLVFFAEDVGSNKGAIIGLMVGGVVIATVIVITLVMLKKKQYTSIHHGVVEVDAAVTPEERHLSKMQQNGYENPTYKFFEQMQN
# Chain of mouse CypD, endogenous, in brain mitochondria and cultured cortical neurons of nonTg and Tg mAPP mice (chain, as listed by the source): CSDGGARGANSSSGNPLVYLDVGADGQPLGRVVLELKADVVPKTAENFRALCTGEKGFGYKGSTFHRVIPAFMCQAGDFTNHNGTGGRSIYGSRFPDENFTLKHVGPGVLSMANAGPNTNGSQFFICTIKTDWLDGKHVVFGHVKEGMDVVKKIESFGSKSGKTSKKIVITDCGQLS
# Chain of Aβ42 (aggregation state not stated at the place of use) (P05067 whole entry, looked up): as the sequence (P05067 whole entry, looked up, tested part not stated) above
substance,measurement,setting,value
"mouse CypD, endogenous, in brain mitochondria and cultured cortical neurons of nonTg and Tg mAPP mice","Aβ-mediated swelling of isolated cortical mitochondria, diminished in mitochondria lacking CypD, Aβ 1.6 µM",[1],˜60%
same,cytochrome c release into the supernatant from isolated mitochondria treated with Aβ,[2],increased levels of cytochrome c release into the supernatant in nonTg-derived mitochondria treated with Aβ
